Measurements from patent US20120301461A1 (Merck Sharp & Dohme, published 2012).
Values belong to the binder of their own block, whether it stands above or below them.

Experiments:
[1] = biological target: T1, murine PCSK9, V5- and His-tagged (mPCSK9v5His) (murine, UniProt Q80W65 35-694); assay: kinetic constants of 1B20 Fab; method not named at the table (presumably SPR as in Example 6)
T1 construct: also called mouse PCSK9; not shown: V5 and His tags

[2] = biological target: T1, murine PCSK9, V5- and His-tagged …; assay: cell-based or functional assay
[3] = biological target: T1, murine PCSK9, V5- and His-tagged …; assay: SPR (Biacore 2000), Fab captured on anti-Fab IgG, PCSK9 in flow; mean N=3
Method: Anti-Fab IgG (Human specific) (Sigma, catalog #I5260) was covalently coupled to surfaces 1 and 2 of a Sensor Chip CM5 via primary amine groups, using the immobilization wizard with the “Aim for immobilization” option using Biacore™ Amine Coupling Kit (cat #BR-1000-50. A target immobilization of 5000 RU was specified. The wizard uses a 7 minute activation with a 1:1 mixture of 100 mM NHS (N-Hydroxysuccinimide) and 400 mM EDC (1-ethyl-3-(3-dimethylaminopropyl)-carbodiimide), injects the ligand in several pulses to achieve the desired level, then deactivates the remaining surface with a 7 minute pulse of ethanolamine.
Each Fab was captured by flowing a 500 ng/ml solution at 5 or 10 μl/min for 1-1.5 minutes to reach a target RL for an Rₘₐₓ of 100-150 RU for the reaction. 5-10 concentrations of hPCSK9v5His or mPCSK9v5His antigens were flowed across the surface at 30 μl/minute for 3-4 minutes. 15-60 minutes dissociation time was allowed before regeneration of the Anti-Fab surface with a 30 second pulse of 10 mM glycine pH 2.0.

[4] = biological target: T1, murine PCSK9, V5- and His-tagged …; assay: SPR (Biacore 2000), IgG captured on goat anti-human IgG, PCSK9 in flow; mean N=2
Method: A goat Anti-Human IgG (Caltag, catalog #H10700) was covalently coupled to surfaces 1 and 2 of a Sensor Chip CM5 via primary amine groups, using the immobilization wizard with the “Aim for immobilization” option using Biacore™ Amine Coupling Kit (cat #BR-1000-50. A target immobilization of 5000 RU was specified. The wizard uses a 7 minute activation with a 1:1 mixture of 100 mM NHS (N-Hydroxysuccinimide) and 400 mM EDC (1-ethyl-3-(3-dimethylaminopropyl)-carbodiimide), injects the ligand in several pulses to achieve the desired level, then deactivates the remaining surface with a 7 minute pulse of ethanolamine.
IgG was captured by flowing a 10 nM solution at 10 μl/min for 1-1.5 minutes to reach a target RL for an Rₘₐₓ of 100-150 RU for the reaction. 5-10 concentrations of hPCSK9v5His or mPCSK9v5His antigens were flowed across the surface at 30 or 60 μl/minute for 4 minutes. 15-60 minutes dissociation time was allowed before regeneration of the Anti-IgG surface with a 60 second pulse of 10 mM Glycine pH 1.7.

[5] = biological target: T2, human PCSK9, V5- and His-tagged (hPCSK9v5His) (human, UniProt Q8NBP7 31-692); assay: SPR (Bio-Rad ProteOn), Fab against human PCSK9-V5-His
T2 construct: Recombinant secreted protein; Peptides 31-49 (prodomain) and 153-; also called wt-hPCSK9; wt-PCSK9; not shown: V5 and His tags
T2 sequence (Q8NBP7 31-692 limits assumed): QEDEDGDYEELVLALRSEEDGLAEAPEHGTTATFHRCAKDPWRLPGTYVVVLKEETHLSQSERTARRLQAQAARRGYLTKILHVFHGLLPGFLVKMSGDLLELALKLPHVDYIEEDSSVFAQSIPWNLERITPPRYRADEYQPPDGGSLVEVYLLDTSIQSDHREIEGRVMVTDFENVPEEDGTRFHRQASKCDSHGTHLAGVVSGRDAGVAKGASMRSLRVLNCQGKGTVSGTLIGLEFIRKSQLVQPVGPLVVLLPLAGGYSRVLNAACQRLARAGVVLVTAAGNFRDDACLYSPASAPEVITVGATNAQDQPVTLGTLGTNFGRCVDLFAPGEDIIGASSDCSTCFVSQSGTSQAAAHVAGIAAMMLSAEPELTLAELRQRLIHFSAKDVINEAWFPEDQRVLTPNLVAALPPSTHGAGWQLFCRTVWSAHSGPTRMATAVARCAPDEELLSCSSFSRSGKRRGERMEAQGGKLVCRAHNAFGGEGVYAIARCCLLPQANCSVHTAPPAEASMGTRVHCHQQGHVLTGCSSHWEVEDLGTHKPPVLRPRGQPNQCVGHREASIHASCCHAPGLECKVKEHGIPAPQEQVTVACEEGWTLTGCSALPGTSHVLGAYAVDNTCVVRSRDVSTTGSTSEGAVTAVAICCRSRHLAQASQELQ

T1 sequence (Q80W65 35-694 limits assumed): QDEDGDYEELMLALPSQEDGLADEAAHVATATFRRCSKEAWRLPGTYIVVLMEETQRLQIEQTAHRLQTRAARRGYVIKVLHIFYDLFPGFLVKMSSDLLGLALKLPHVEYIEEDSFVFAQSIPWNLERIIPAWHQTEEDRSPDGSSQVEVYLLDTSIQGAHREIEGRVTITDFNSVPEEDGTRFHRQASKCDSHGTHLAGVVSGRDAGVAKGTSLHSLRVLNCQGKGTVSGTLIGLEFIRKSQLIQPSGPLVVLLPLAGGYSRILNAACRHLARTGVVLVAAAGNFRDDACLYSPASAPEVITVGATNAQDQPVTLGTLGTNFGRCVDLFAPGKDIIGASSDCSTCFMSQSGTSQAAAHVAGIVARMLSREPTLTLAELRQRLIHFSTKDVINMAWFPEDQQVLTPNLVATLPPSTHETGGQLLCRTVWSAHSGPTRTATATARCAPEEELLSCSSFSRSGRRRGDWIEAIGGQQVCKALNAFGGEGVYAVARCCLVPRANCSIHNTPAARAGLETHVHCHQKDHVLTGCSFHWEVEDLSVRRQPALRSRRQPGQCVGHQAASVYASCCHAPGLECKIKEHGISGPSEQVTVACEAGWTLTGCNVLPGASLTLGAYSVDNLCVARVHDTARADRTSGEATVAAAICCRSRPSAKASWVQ

B1: 1B20 Fab (Fab, V domains shown)
VH: QVQLVQSGAEVKKPGESLKISCKGSGYSFTNYWISWVRQMPGKGLEWMGIIYPGDSYTNYSPSFQGQVTISADKSISTAYLQWSSLKASDTAMYYCARDYWYKPLFDIWGQGTLVTVSS
VL: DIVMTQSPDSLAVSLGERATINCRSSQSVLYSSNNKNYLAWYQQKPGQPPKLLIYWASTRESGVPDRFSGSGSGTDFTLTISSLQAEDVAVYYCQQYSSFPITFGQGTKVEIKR
Ka [1]: 2e+09 M⁻¹
Kd [1]: 0.51 nM
koff [1]: 7.18e-05 s⁻¹
kon [1]: 141000 M⁻¹ s⁻¹
IC50, Exopolar assay (PCSK9-dependent loss of cellular LDL uptake) [2]: 152 nM

B4: 1D05 Fab variant M48L (Fab, V domains shown)
VH: QVQLVQSGAEVKKPGSSVKVSCKASGGTFNSHAISWVRQAPGQGLEWLGGINPILGIANYAQKFQGRVTITADESTSTAYMELSSLRSEDTAVYYCARHYEIQIGRYGMNVYYLMYRFASWGQGTLVTVSS
VL: DIQMTQSPSSLSASVGDRVTITCRASQGIRSALNWYQQKPGKAPKLLIYNGSTLQSGVPSRFSGSGSGTDFTLTISSLQPEDFAVYYCQQFDGDPTFGQGTKVEIKR
notes: Tested as a Fab, with only the heavy chain mutated
Kd [5]: 1.52 nM

B5: 1D05 Fab variant H32Y (Fab, V domains shown)
VH: QVQLVQSGAEVKKPGSSVKVSCKASGGTFNSYAISWVRQAPGQGLEWMGGINPILGIANYAQKFQGRVTITADESTSTAYMELSSLRSEDTAVYYCARHYEIQIGRYGMNVYYLMYRFASWGQGTLVTVSS
VL: DIQMTQSPSSLSASVGDRVTITCRASQGIRSALNWYQQKPGKAPKLLIYNGSTLQSGVPSRFSGSGSGTDFTLTISSLQPEDFAVYYCQQFDGDPTFGQGTKVEIKR
notes: Site-directed mutant of 1D05, tested as a Fab, with only the heavy chain mutated
Kd [5]: 2.01 nM

B7: 1D05 Fab variant H99Y (Fab, V domains shown)
VH: QVQLVQSGAEVKKPGSSVKVSCKASGGTFNSHAISWVRQAPGQGLEWMGGINPILGIANYAQKFQGRVTITADESTSTAYMELSSLRSEDTAVYYCARYYEIQIGRYGMNVYYLMYRFASWGQGTLVTVSS
VL: DIQMTQSPSSLSASVGDRVTITCRASQGIRSALNWYQQKPGKAPKLLIYNGSTLQSGVPSRFSGSGSGTDFTLTISSLQPEDFAVYYCQQFDGDPTFGQGTKVEIKR
notes: as for B4
Kd [5]: 1.45 nM

B8: 1D05 Fab variant M48L/M109L/M115L (Fab, V domains shown)
VH: QVQLVQSGAEVKKPGSSVKVSCKASGGTFNSHAISWVRQAPGQGLEWLGGINPILGIANYAQKFQGRVTITADESTSTAYMELSSLRSEDTAVYYCARHYEIQIGRYGLNVYYLLYRFASWGQGTLVTVSS
VL: DIQMTQSPSSLSASVGDRVTITCRASQGIRSALNWYQQKPGKAPKLLIYNGSTLQSGVPSRFSGSGSGTDFTLTISSLQPEDFAVYYCQQFDGDPTFGQGTKVEIKR
notes: as for B4
Kd [5]: 1.13 nM

B10: 1D05 Fab variant M48A (Fab, V domains shown)
VH: QVQLVQSGAEVKKPGSSVKVSCKASGGTFNSHAISWVRQAPGQGLEWAGGINPILGIANYAQKFQGRVTITADESTSTAYMELSSLRSEDTAVYYCARHYEIQIGRYGMNVYYLMYRFASWGQGTLVTVSS
VL: DIQMTQSPSSLSASVGDRVTITCRASQGIRSALNWYQQKPGKAPKLLIYNGSTLQSGVPSRFSGSGSGTDFTLTISSLQPEDFAVYYCQQFDGDPTFGQGTKVEIKR
notes: as for B4
Kd [5]: 2.06 nM

B12: 1D05 Fab variant M48V (Fab, V domains shown)
VH: QVQLVQSGAEVKKPGSSVKVSCKASGGTFNSHAISWVRQAPGQGLEWVGGINPILGIANYAQKFQGRVTITADESTSTAYMELSSLRSEDTAVYYCARHYEIQIGRYGMNVYYLMYRFASWGQGTLVTVSS
VL: DIQMTQSPSSLSASVGDRVTITCRASQGIRSALNWYQQKPGKAPKLLIYNGSTLQSGVPSRFSGSGSGTDFTLTISSLQPEDFAVYYCQQFDGDPTFGQGTKVEIKR
notes: as for B4
Kd [5]: 1.95 nM

Second part, the binder after the results:

Kd [3]: 3.35 nM
IC50, inhibition of PCSK9-dependent loss of cellular LDL uptake (Exopolar assay, HEK cells, PCSK9 5 ug/ml) [2]: 97 nM
B2: m2CX1D05 Fab (Fab, V domains shown)
VH: QVQLVQSGAEVKKPGSSVKVSCKASGGTFNSHAISWVRQAPGQGLEWMGGINPILGIANYAQKFQGRVTITADESTSTAYMELSSLRSEDTAVYYCARHYEIQIGRYGMNVYYLMYRFASWGQGTLVTVSS
VL: DIQMTQSPSSLSASVGDRVTITCRASQGIRSALNWYQQKPGKAPKLLIYNGSTLQSGVPSRFSGSGSGTDFTLTISSLQPEDFAVYYCQQFDGDPTFGQGTKVEIKR
notes: also called Fab 1D05; mPCSK9 2CX1D05 Fab

IC50, inhibition of PCSK9-dependent loss of cellular LDL uptake (Exopolar assay, HEK cells, PCSK9 5 ug/ml) [2]: 85 nM
Kd [4]: 3.2 nM
B3: 1D05 IgG2m4 (antibody, V domains shown)
VH: QVQLVQSGAEVKKPGSSVKVSCKASGGTFNSHAISWVRQAPGQGLEWMGGINPILGIANYAQKFQGRVTITADESTSTAYMELSSLRSEDTAVYYCARHYEIQIGRYGMNVYYLMYRFASWGQGTLVTVSS
VL: DIQMTQSPSSLSASVGDRVTITCRASQGIRSALNWYQQKPGKAPKLLIYNGSTLQSGVPSRFSGSGSGTDFTLTISSLQPEDFAVYYCQQFDGDPTFGQGTKVEIKR
notes: also called M2CX1D05 (IgG); IgG 1D05

Kd [5]: 3.42 nM
B6: 1D05 Fab variant N50D (Fab, V domains shown)
VH: QVQLVQSGAEVKKPGSSVKVSCKASGGTFNSHAISWVRQAPGQGLEWMGGINPILGIANYAQKFQGRVTITADESTSTAYMELSSLRSEDTAVYYCARHYEIQIGRYGMNVYYLMYRFASWGQGTLVTVSS
VL: DIQMTQSPSSLSASVGDRVTITCRASQGIRSALNWYQQKPGKAPKLLIYDGSTLQSGVPSRFSGSGSGTDFTLTISSLQPEDFAVYYCQQFDGDPTFGQGTKVEIKR
notes: Tested as a Fab, with only the light chain mutated

Kd [5]: 0.615 nM
B9: 1D05 Fab variant N50Q (Fab, V domains shown)
VH: QVQLVQSGAEVKKPGSSVKVSCKASGGTFNSHAISWVRQAPGQGLEWMGGINPILGIANYAQKFQGRVTITADESTSTAYMELSSLRSEDTAVYYCARHYEIQIGRYGMNVYYLMYRFASWGQGTLVTVSS
VL: DIQMTQSPSSLSASVGDRVTITCRASQGIRSALNWYQQKPGKAPKLLIYQGSTLQSGVPSRFSGSGSGTDFTLTISSLQPEDFAVYYCQQFDGDPTFGQGTKVEIKR
notes: as for B6

Kd [5]: 2.13 nM
B11: 1D05 Fab variant N50T (Fab, V domains shown)
VH: QVQLVQSGAEVKKPGSSVKVSCKASGGTFNSHAISWVRQAPGQGLEWMGGINPILGIANYAQKFQGRVTITADESTSTAYMELSSLRSEDTAVYYCARHYEIQIGRYGMNVYYLMYRFASWGQGTLVTVSS
VL: DIQMTQSPSSLSASVGDRVTITCRASQGIRSALNWYQQKPGKAPKLLIYTGSTLQSGVPSRFSGSGSGTDFTLTISSLQPEDFAVYYCQQFDGDPTFGQGTKVEIKR
notes: as for B6

Kd [5]: 2.58 nM
B13: 1D05 Fab variant N50Y (Fab, V domains shown)
VH: QVQLVQSGAEVKKPGSSVKVSCKASGGTFNSHAISWVRQAPGQGLEWMGGINPILGIANYAQKFQGRVTITADESTSTAYMELSSLRSEDTAVYYCARHYEIQIGRYGMNVYYLMYRFASWGQGTLVTVSS
VL: DIQMTQSPSSLSASVGDRVTITCRASQGIRSALNWYQQKPGKAPKLLIYYGSTLQSGVPSRFSGSGSGTDFTLTISSLQPEDFAVYYCQQFDGDPTFGQGTKVEIKR
notes: as for B6
